# Reference: US20220031857A1 (OSSIANIX, published 2022)
# T1: recombinant mouse TfR2 (mouse, UniProt Q9JKX3 103-798, limits assumed)
# T1 construct: Negative control protein
# T1 sequence (looked up): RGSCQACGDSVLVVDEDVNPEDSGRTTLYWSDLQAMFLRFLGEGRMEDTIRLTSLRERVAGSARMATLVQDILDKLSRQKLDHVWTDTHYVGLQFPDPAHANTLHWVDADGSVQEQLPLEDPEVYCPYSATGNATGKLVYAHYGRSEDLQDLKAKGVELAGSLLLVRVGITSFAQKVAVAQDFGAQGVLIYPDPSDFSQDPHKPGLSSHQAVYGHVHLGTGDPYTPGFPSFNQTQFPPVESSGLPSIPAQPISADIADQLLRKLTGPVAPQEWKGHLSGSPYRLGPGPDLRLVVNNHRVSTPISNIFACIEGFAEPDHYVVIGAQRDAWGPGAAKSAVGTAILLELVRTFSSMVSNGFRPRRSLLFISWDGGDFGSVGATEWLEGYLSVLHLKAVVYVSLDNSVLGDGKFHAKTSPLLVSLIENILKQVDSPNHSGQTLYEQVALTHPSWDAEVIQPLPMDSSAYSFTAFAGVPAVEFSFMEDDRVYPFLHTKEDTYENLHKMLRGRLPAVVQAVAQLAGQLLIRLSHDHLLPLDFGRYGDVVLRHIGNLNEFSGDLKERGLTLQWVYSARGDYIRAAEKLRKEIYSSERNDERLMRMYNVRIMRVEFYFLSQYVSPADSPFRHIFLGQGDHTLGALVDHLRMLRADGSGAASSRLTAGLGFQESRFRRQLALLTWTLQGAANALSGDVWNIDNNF
# Columns and labels:
# [1] = target: T2, recombinant mouse TfR1 (transferrin receptor 1) (mouse, UniProt Q62351 89-763); test: ELISA on mouse TfR1
# T2 construct: Bought recombinant His-tagged protein; also called mTfR1
# T2 sequence (Q62351 89-763 limits assumed): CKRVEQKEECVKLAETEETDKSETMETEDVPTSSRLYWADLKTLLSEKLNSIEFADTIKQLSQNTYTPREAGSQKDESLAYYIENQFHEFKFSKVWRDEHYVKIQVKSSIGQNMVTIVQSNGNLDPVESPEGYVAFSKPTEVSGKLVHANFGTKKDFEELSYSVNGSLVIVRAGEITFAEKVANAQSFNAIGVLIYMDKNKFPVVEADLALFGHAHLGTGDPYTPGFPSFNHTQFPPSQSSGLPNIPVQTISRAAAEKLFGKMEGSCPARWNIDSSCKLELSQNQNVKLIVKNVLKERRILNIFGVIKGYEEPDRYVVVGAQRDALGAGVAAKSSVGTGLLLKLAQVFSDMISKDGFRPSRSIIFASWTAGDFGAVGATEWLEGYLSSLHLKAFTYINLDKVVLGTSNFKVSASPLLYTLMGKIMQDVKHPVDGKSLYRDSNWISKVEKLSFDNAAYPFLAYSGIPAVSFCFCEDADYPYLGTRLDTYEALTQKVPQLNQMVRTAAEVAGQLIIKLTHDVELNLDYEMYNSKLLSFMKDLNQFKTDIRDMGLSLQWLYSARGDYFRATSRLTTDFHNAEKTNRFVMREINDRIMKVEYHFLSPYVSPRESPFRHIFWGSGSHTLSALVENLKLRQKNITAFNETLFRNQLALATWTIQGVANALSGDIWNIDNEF
# [2] = target: T2, recombinant mouse TfR1 (transferrin …); test: Octet, mouse TfR1 on anti-His biosensors, analyte 10 nM, PBS pH 6.0
# Description: (§1) Binding kinetics of selected VNAR-Fcs to mouse TfR1 at pH 7.2 and pH 6.0 was measured by […] (Octet). Mouse TfR1 (10 μg/ml) was immobilised on anti-His biosensors and the binding kinetics of VNAR-Fcs and 8D3 antibody (10 nM) was measured at pH 7.2 and pH 6.0 in phosphate buffered saline (PBS) (Table 8).
# [3] = target: T2, recombinant mouse TfR1 (transferrin …); test: Octet, mouse TfR1 on anti-His biosensors, analyte 10 nM, PBS pH 7.2
# Description: as §1
# [4] = target: T3, recombinant human TfR1 (transferrin receptor 1) (human, UniProt P02786 89-760); test: SPR (Biacore), single-cycle kinetics, His-tagged TfR1 captured, VNAR-Fc injected
# T3 construct: Bought recombinant His-tagged protein; also called hTfR1
# T3 sequence (P02786 89-760 limits assumed): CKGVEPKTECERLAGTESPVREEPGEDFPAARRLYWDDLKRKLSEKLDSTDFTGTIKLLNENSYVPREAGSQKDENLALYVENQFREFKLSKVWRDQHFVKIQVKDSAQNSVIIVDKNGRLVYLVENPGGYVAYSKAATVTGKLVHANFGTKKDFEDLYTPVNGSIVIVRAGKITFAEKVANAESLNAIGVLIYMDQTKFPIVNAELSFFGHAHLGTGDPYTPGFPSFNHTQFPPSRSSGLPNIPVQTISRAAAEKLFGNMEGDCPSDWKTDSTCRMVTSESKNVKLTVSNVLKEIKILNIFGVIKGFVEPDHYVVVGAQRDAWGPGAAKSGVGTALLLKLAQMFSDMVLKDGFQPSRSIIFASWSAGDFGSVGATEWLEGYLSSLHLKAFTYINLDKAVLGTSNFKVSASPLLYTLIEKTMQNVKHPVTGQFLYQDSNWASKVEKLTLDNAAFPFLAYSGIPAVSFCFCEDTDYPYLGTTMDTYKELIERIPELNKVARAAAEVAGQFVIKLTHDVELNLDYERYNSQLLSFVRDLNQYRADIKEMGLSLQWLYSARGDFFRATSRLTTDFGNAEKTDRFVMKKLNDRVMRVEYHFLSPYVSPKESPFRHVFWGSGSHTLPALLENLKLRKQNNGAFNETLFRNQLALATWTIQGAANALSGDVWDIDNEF
# Description: (§2) Binding kinetics of VNAR-Fcs was determined by surface plasmon resonance (Biacore T200, GE Healthcare). CM5 chips were coated with anti-His antibodies (His Capture Kit, GE Healthcare) as recommended by the manufacturer and human or mouse his-tagged TfR1 (SinoBiological) at 10 ug/mL in HBS-EP+ (GE Healthcare) was captured at flow rate 10 ul/min (contact time 120 s). […] A flow cell without TfR1 captured served as a reference. Sensorgrams were fitted and kinetic constants were determined using Biacore T200 Evaluation software. Chips were regenerated in 10 mM Glycine-HCl, pH 1.5 (contact time: 120 s at flow rate 30 ul/min).
# [5] = target: T2, recombinant mouse TfR1 (transferrin …); test: as above
# Description: as §2
# human serum albumin = target: T4, human serum albumin (human, UniProt P02768 25-609); test: ELISA with Expi293 culture medium used directly, coated HSA, anti-Fc detection
# T4 construct: Negative control protein; also called HSA
# T4 sequence (P02768 25-609 limits assumed): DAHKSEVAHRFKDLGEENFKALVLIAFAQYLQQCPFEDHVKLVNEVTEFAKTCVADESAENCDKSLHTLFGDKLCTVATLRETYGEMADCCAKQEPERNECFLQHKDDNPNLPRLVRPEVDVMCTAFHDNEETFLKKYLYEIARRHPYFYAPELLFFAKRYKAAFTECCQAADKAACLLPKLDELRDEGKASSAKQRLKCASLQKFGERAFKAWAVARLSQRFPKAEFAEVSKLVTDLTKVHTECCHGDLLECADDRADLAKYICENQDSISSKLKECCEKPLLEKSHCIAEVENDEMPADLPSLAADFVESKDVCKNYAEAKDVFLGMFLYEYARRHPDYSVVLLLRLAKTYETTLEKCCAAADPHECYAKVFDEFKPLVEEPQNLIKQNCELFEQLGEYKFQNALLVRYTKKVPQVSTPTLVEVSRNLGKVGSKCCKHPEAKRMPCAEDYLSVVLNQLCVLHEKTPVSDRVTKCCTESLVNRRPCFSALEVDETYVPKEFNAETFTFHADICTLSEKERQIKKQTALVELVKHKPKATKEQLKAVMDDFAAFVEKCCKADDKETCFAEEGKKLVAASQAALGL
# Description: (§3) FIG. 6. […] The VNAR-Fc fusion proteins were transiently expressed using Expi293 expression system. VNAR-Fc constructs contained signal peptide sequence in order to be secreted. Cell growth media was used directly in ELISA. HSA and mouse TfR2 were used as negative controls for unspecific binding. A clone in position 52 represents untransfected cells. Total Fc concentration was measured with capture and detection anti-Fc antibody pair using irrelevant VNAR-Fc at known concentration for standard curve.
# (§4) The next day the plates were blocked with […] with 0.1% Tween20 (PBST) for 1 hour at room temperature. Transfected cells were spun down at 2000 rpm for 10 minutes and the collected supernatant was mixed with milk in PBST to a final 2.5% concentration and incubated for 30 minutes. 100 μl of blocked supernatant was transferred into coated plates and incubated for 1 hour. […] The plates were washed and developed with TMB detection solution before stopping the reaction with 1% HCl. Absorbance was measured at 450 nm. A VNAR-Fc at know concentration was used for standard curve to calculate VNAR-Fc expression level.
# recombinant mouse TfR2 = target: T1, recombinant mouse TfR2; test: ELISA with Expi293 culture medium used directly, coated mouse TfR2, anti-Fc detection
# Description: as §3, §4
# [6] = target: T3, recombinant human TfR1 (transferrin …); test: ELISA, plate coated with 1 µg/ml recombinant human TfR1, purified VNAR-Fc titrated, 4-parameter fit
# Description: (§5) It was previously reported that affinity might play a crucial role in TfR1 mediated brain penetration. […] Affinity estimation and unspecific binding was initially assessed using ELISA for human and mouse TfR1.
# as §4
# [7] = target: T2, recombinant mouse TfR1 (transferrin …); test: ELISA, plate coated with 1 µg/ml recombinant mouse TfR1, purified VNAR-Fc titrated, 4-parameter fit
# Description: as §5, §4
# [8] = target: T3, recombinant human TfR1 (transferrin …); test: Octet, human TfR1 immobilised; 8D3 as first antibody, which does not bind human TfR1 (grey column); white cell
# Description: FIGS. 15A and 15B. Epitope binning by cross-competition binding to mouse and human TfR1. VNAR-Fc fusion proteins were tested for cross-blocking in a pairwise manner against mouse (A) and human TfR1 (B) immobilised on biosensors using the Octet platform.
# A series of biochemical parameters was examined to further characterize the panel VNAR to TfR1 obtained from in vivo phage display selections. Epitope binning experiments were performed to assess whether the VNARs could compete against each other for binding to either the mouse or human TfR1. […] Because each VNAR binds via a unique CDR3 region with a different structural topography, steric interactions could be important efficient transcytosis.
Binder,EC50 [1] [nM],Kd [2] [nM],koff [2] [s⁻¹],kon [2] [M⁻¹ s⁻¹],Kd [3] [nM],koff [3] [s⁻¹],kon [3] [M⁻¹ s⁻¹],Kd [4] [nM],koff [4] [s⁻¹],kon [4] [M⁻¹ s⁻¹],Kd [5] [nM],koff [5] [s⁻¹],kon [5] [M⁻¹ s⁻¹],binding result (human serum albumin),binding result (recombinant mouse TfR2),EC50 [6] [nM],EC50 [7] [nM],Octet signal as second antibody after 8D3 [8]
"Clone 10 VNAR-Fc fusion protein (Fc fusion, Bivalent VNAR-Fc; also called clone 10-Fc; Clone 10-hFc; not shown: glycine/serine linker (GxSx)n extending the hinge; human IgG1 Fc (hinge, CH2, CH3) of pFUSE-hIgG1e3-Fc2; G236 also deleted) ARVDQTPQTITKETGESLTINCVLRDSNCALSSTYWYRKKSGSTNEENISKGGRYVETVNSGSKSFSLRINDLTVEDSGTYRCNVVQYPSYNNYFWCDVYGDGTAVTVNA",2.96,0.419,0.0003,715000,0.0703,4.43e-05,630000,0.523,0.00016,306000,0.408,0.000116,285000,no binding,no binding,2.45,11.9,0.546
"IDUA-clone 10-hFc (Fc fusion, Order of the parts follows the text's 'VNAR-Fc-IDUA'; Made in CHO cells; also called clone 10 VNAR-Fc-IDUA fusion protein; not shown: human Fc fragment (hFc)) chain (part 1 of 2): ARVDQTPQTITKETGESLTINCVLRDSNCALSSTYWYRKKSGSTNEENISKGGRYVETVNSGSKSFSLRINDLTVEDSGTYRCNVVQYPSYNNYFWCDVYGDGTAVTVNA chain (part 2 of 2): APHLVHVDAARALWPLRRFWRSTGFCPPLPHSQADQYVLSWDQQLNLAYVGAVPHRGIKQVRTHWLLELVTTRGSTGRGLSYNFTHLDGYLDLLRENQLLPGFELMGSASGHFTDFEDKQQVFEWKDLVSSLARRYIGRYGLAHVSKWNFETWNEPDHHDFDNVSMTMQGFLNYYDACSEGLRAASPALRLGGPGDSFHTPPRSPLSWGLLRHCHDGTNFFTGEAGVRLDYISLHRKGARSSISILEQEKVVAQQIRQLFPKFADTPIYNDEADPLVGWSLPQPWRADVTYAAMVVKVIAQHQNLLLANTTSAFPYALLSNDNAFLSYHPHPFAQRTLTARFQVNNTRPPHVQLLRKPVLTAMGLLALLDEEQLWAEVSQAGTVLDSNHTVGVLASAHRPQGPADAWRAAVLIYASDDTRAHPNRSVAVTLRLRGVPPGPGLVYVTRYLDNGLCSPDGEWRRLGRPVFPTAEQFRRMRAAEDPVAAAPRPLPAGGRLTLRPALRLPSLLLVHVCARPEKPPGQVTRLRALPLTQGQLVLVWSDEHVGSKCLWTYEIQFSQDGKAYTPVSRKPSTFNLFVFSPDTGAVSGSYRVRALDYWARPGPFSDPVPYLEVPVPRGPPSPGNP",8.33,–,–,–,–,–,–,–,–,–,–,–,–,–,–,–,–,–
"Clone 7 VNAR-Fc fusion protein (Fc fusion, Bivalent VNAR-Fc; not shown: glycine/serine linker (GxSx)n extending the hinge; human IgG1 Fc (hinge, CH2, CH3) of pFUSE-hIgG1e3-Fc2; G236 also deleted) ARVDQTPQTITKETGESLTINCVLRDSNCELSSTYWYRKKSGSTNEARISKGGRYVETVNSGSKSFSLKINDLTVEDSGTYRCNVLTTDSYDLGDVYGDGTVVTVNA",–,–,–,–,–,–,–,–,–,–,–,–,–,no binding,no binding,463,5370,–
"Clone 16 VNAR-Fc fusion protein (Fc fusion, Bivalent VNAR-Fc; not shown: glycine/serine linker (GxSx)n extending the hinge; human IgG1 Fc (hinge, CH2, CH3) of pFUSE-hIgG1e3-Fc2; G236 also deleted) ARVDQTPQTITKETGESLTINCVLRDSNCALPSTYWYRKKSGSTNEESISKGGRYVETVNSGSKSFSLRINDLTVKDSGTYRCKVDLPRYLCFSQYGRWYDVYGDGTAVTVNA",–,–,–,–,–,–,–,–,–,–,–,–,–,–,–,3110,7180,–
"Clone 1 VNAR-Fc fusion protein (Fc fusion, Bivalent VNAR-Fc; also called clone 1-Fc; not shown: glycine/serine linker (GxSx)n extending the hinge; human IgG1 Fc (hinge, CH2, CH3) of pFUSE-hIgG1e3-Fc2; G236 also deleted) ARVDQTPQTITKETGESLTINCVLRDNNCALSTTYWYRKKSGSTNEENISKGGRYVETVNSGSKSFSLKINDLTVEDSGTYRCNVRDVQACGNDWVWLDVYGGGTVVTVNA",4.83,0.541,0.00036,666000,0.363,0.000292,804000,1.87,0.000123,66000,3.34,0.00025,74700,no binding,no binding,4.67,15.9,0.329
"IDUA-clone 1-hFc (Fc fusion, Order of the parts follows the text's 'VNAR-Fc-IDUA'; Made in CHO cells; also called clone 1 VNAR-Fc-IDUA fusion protein; not shown: human Fc fragment (hFc)) chain (part 1 of 2): ARVDQTPQTITKETGESLTINCVLRDNNCALSTTYWYRKKSGSTNEENISKGGRYVETVNSGSKSFSLKINDLTVEDSGTYRCNVRDVQACGNDWVWLDVYGGGTVVTVNA chain (part 2 of 2): APHLVHVDAARALWPLRRFWRSTGFCPPLPHSQADQYVLSWDQQLNLAYVGAVPHRGIKQVRTHWLLELVTTRGSTGRGLSYNFTHLDGYLDLLRENQLLPGFELMGSASGHFTDFEDKQQVFEWKDLVSSLARRYIGRYGLAHVSKWNFETWNEPDHHDFDNVSMTMQGFLNYYDACSEGLRAASPALRLGGPGDSFHTPPRSPLSWGLLRHCHDGTNFFTGEAGVRLDYISLHRKGARSSISILEQEKVVAQQIRQLFPKFADTPIYNDEADPLVGWSLPQPWRADVTYAAMVVKVIAQHQNLLLANTTSAFPYALLSNDNAFLSYHPHPFAQRTLTARFQVNNTRPPHVQLLRKPVLTAMGLLALLDEEQLWAEVSQAGTVLDSNHTVGVLASAHRPQGPADAWRAAVLIYASDDTRAHPNRSVAVTLRLRGVPPGPGLVYVTRYLDNGLCSPDGEWRRLGRPVFPTAEQFRRMRAAEDPVAAAPRPLPAGGRLTLRPALRLPSLLLVHVCARPEKPPGQVTRLRALPLTQGQLVLVWSDEHVGSKCLWTYEIQFSQDGKAYTPVSRKPSTFNLFVFSPDTGAVSGSYRVRALDYWARPGPFSDPVPYLEVPVPRGPPSPGNP",7.24,–,–,–,–,–,–,–,–,–,–,–,–,–,–,–,–,–
"Clone 12 VNAR-Fc fusion protein (Fc fusion, Bivalent VNAR-Fc; not shown: glycine/serine linker (GxSx)n extending the hinge; human IgG1 Fc (hinge, CH2, CH3) of pFUSE-hIgG1e3-Fc2; G236 also deleted) ARVDQTPQTITKETGESLTINCVLRDSICALSSTHWYRKKSGSTNEESISKGGRYVETVNSGSKSFSLRINDLTVEDSGTYRCKVVRSGVGPCWADVYGGGTAVTVNA",–,–,–,–,–,–,–,–,–,–,–,–,–,no binding,no binding,151,1560,0.403
